Measurements from FireProtDB (doi:10.1007/s00775-020-01777-0).

B1: Cytochrome c-553 wild type, B8C6L5 (protein)
chain: MKLTIVAALIASASAWTTPKSFESVKAAVAGAAVTAGVAVSPAFAGDVGAGEQIFNANCAACHAGGQNVIMPDKTLEKEALEQYLAGGRNEKAVMTQVTNGKNAMPAFGGRLSDEDIANVASYVIATSEAGWD
B2: Cytochrome c-553 wild type, A0A1E7EP28 (protein)
chain: MKFAIFATLLVSASAFSINKADVAKAAAAGAIAFSVAAGPAFAGDVGAGEQIFNANCAACHAGGQNVIMPEKTLEKEALDQYLSGGRSEKSVMTQVTNGKNAMPAFGGRLSEEDIANVASYVISSAEAGWEE

Conditions: pH 7.4, UV/Vis spectroscopy, HEPES, transition: 2, reversible: > 90% (Yes), whole UniProt chain shown; for denaturant m value / denaturant midpoint (higher = more stable) / unfolding free energy: 15 °C, GdnHCl, potassium ferricyanide; for Tm / unfolding enthalpy (van 't Hoff): Thermal
[1] = Fragilariopsis cylindrus CCMP1102

Protein | denaturant m value (Thalassiosira pseudonana) | denaturant midpoint (higher = more stable) (Thalassiosira pseudonana) | unfolding free energy (Thalassiosira pseudonana) | Tm (Thalassiosira pseudonana) | unfolding enthalpy (van 't Hoff) (Thalassiosira pseudonana) | denaturant m value [1] | denaturant midpoint (higher = more stable) [1] | unfolding free energy [1] | Tm [1] | unfolding enthalpy (van 't Hoff) [1]
B1 | 2.1 kcal/mol/M | 1.2 M | 2.63 kcal/mol | 39.1 °C | 38.7 kcal/mol | – | – | – | – | –
B2 | – | – | – | – | – | 4.6 kcal/mol/M | 0.5 M | 2.15 kcal/mol | 28.8 °C | 44.7 kcal/mol
